Assay results reported in PMC4359968 (Cancer research, 2015).

Biological target: RAGE-Fc (human RAGE) (human, UniProt Q15109 23-342)
Assay: ELISA

RAGE-Fc (human RAGE), sequence (Q15109 23-342): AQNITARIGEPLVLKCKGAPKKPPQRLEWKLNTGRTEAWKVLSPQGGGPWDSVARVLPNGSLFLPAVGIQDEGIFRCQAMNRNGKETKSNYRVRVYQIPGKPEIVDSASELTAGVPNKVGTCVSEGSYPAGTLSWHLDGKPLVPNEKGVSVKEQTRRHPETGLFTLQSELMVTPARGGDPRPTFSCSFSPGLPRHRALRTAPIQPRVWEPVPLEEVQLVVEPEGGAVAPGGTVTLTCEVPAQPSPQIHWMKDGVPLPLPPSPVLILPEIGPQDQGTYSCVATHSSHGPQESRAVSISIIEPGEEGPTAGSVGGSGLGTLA

- binding result: binds
B1: human recombinant S100A7 (ligand, UniProt P31151 1-101, looked up)
chain: MSNTQAERSIIGMIDMFHKYTRRDDKIEKPSLLTMMKENFPNFLSACDKKGTNYLADVFEKKDKNEDKKIDFSEFLSLLGDIATDYHKQSHGAAPCSGGSQ
